Where “and” joins values, the source holds several entries; their conditions need not be identical. Identical values can stand only once. Like-named read-outs stand apart in the source and are kept apart here.
Legend:
[1] = ref NETTER-1, cited from earlier work
[2] = Observed, adult GEP-NET N=47, historical data; ref NETTER-1 and Erasmus studies; cited from earlier work
[3] = in vivo
[4] = Laboratory abnormalities during Cycle 1, safety set; design: species or system adolescent patients; conditions: in vivo
[5] = Blood pharmacokinetics after one administration, population approach; assay type: in vivo, adolescent and adult patients
[6] = assay type: in vivo, adolescent patients; conditions: for Kidneys projected CAD, median (range) / Kidneys projected CAD, mean (SD): coefficient × 4 × 7.4
[7] = Observed, adolescent GEP-NET and PPGL N=11
[8] = adolescents, 11 patients, population approach

For `C[C@@H](O)[C@H](NC(=O)[C@@H]1CSSC[C@H](NC(=O)[C@@H](Cc2ccccc2)NC(=O)CN2CCN(CC(=O)O)CCN(CC(=O)O)CCN(CC(=O)O)CC2)C(=O)N[C@@H](Cc2ccc(O)cc2)C(=O)N[C@H](Cc2c[nH]c3ccccc23)C(=O)N[C@@H](CCCCN)C(=O)N[C@@H]([C@@H](C)O)C(=O)N1)C(=O)O` [177Lu-DOTATATE, [^177Lu]Lu-DOTA-TATE, metal not drawn], the “AUClast, geometric mean (geometric CV%)” value ([1]; Observed, adult GEP-NET N=20) is given as 30.08 (50.38) ng.h/mL, the “Cmax, geometric mean (geometric CV%)” value ([1]; Observed, adult GEP-NET N=20) is given as 8.98 (73.28) ng/mL and the “Tmax, median (range)” value ([1]; Observed, adult GEP-NET N=20) is given as 0.47 (0.25–1.17) hours. For the same molecule, the T½β ([1]; adults with GEP-NET) was 59.1 h, the “Bone marrow Probability (%) >2 Gy” value [2] was 6% and the “Kidneys Probability (%) >29 Gy” value [2] was 13%. The “deaths by data cutoff” value [3] was “no deaths”, the “patients with AEs that resulted in infusion interruptions” value [3] was 18% and the treatment-related nephrotoxicity [3] was “no treatment-related nephrotoxicity was observed”. The “Grade ≥ 3 biochemistry abnormalities” value [4] was “No”, the “AUClast, geometric mean (geometric CV%)” value [5, 7] was 41.00 (24.15) ng.h/mL and the “Cmax, geometric mean (geometric CV%)” value [5, 7] was 11.17 (33.04) ng/mL. For the same molecule, the “Tmax, median (range)” value [5, 7] was 0.58 (0.50–0.77) hours, the “T½β, population value” ([5]; adolescents) was 36.9 h and the “AUCinf, overall mean ± SD” value [5, 8] was 35.84 ± 4.49 ng·h/mL. For the same molecule, the “Cmax, overall mean ± SD” value [5, 8] was 10.33 ± 0.54 ng/mL, the “clearance, overall mean ± SD” value [5, 8] was 5.98 ± 0.69 L/h and the “Kidneys absorbed dose coefficient, mean (SD)” value ([6]; All patients) was 0.78 ± 0.28 Gy/GBq and 0.78 (0.28) Gy/GBq. The “Kidneys absorbed dose coefficient, median (range)” value ([6]; All patients) was 0.71 (0.46–1.3) Gy/GBq, the “Red marrow (blood) absorbed dose coefficient, mean (SD)” value ([6]; All patients) was 0.026 ± 0.0050 Gy/GBq and 0.026 (0.0050) Gy/GBq and the “Red marrow (blood) absorbed dose coefficient, median (range)” value ([6]; All patients) was 0.026 (0.019–0.035) Gy/GBq. For the same molecule, the “Red marrow (blood) projected CAD, mean (SD)” value ([6]; All patients) was 0.78 ± 0.15 Gy and 0.78 (0.15) Gy, the “Red marrow (blood) projected CAD, median (range)” value ([6]; All patients) was 0.76 (0.55–1.0) Gy and the “Spleen absorbed dose coefficient, mean (SD)” value ([6]; All patients) was 0.74 (0.27) Gy/GBq. The “Spleen absorbed dose coefficient, median (range)” value ([6]; All patients) was 0.72 (0.28–1.1) Gy/GBq, the “Spleen projected CAD, mean (SD)” value ([6]; All patients) was 22 (8.1) Gy and the “Spleen projected CAD, median (range)” value ([6]; All patients) was 21 (8.3–34) Gy. The “Total body absorbed dose coefficient, mean (SD)” value ([6]; All patients) was 0.040 (0.0095) Gy/GBq, the “Total body projected CAD, mean (SD)” value ([6]; All patients) was 1.2 (0.28) Gy and the “Total body projected CAD, median (range)” value ([6]; All patients) was 1.2 (0.66–1.6) Gy. For the same molecule, the “Urinary bladder wall absorbed dose coefficient, mean (SD)” value ([6]; All patients) was 0.55 (0.089) Gy/GBq, the “Urinary bladder wall absorbed dose coefficient, median (range)” value ([6]; All patients) was 0.52 (0.47–0.68) Gy/GBq and the “Urinary bladder wall projected CAD, mean (SD)” value ([6]; All patients) was 16 (2.6) Gy. For the same molecule, the “Urinary bladder wall projected CAD, median (range)” value ([6]; All patients) was 15 (14–20) Gy, the “Tumour absorbed dose coefficient, mean (SD)” value ([6]; All patients, 18 lesions) was 2.0 (1.2) Gy/GBq and the “Tumour absorbed dose coefficient, median (range)” value ([6]; All patients, 18 lesions) was 1.9 (0.17–5.1) Gy/GBq. The “Tumour projected CAD, mean (SD)” value ([6]; All patients, 18 lesions) was 58 (37) Gy, the “Tumour projected CAD, median (range)” value ([6]; All patients, 18 lesions) was 55 (4.9–150) Gy and the “Pituitary absorbed dose coefficient, mean (SD)” value ([6]; All patients, n=9) was 1.1 (0.43) Gy/GBq. For the same molecule, the “Pituitary absorbed dose coefficient, median (range)” value ([6]; All patients, n=9) was 1.0 (0.61–1.9) Gy/GBq, the “Pituitary projected CAD, mean (SD)” value ([6]; All patients, n=9) was 33 ± 13 Gy and 33 (13) Gy and the “Pituitary projected CAD, median (range)” value ([6]; All patients, n=9) was 30 (18–56) Gy. For the same molecule, the “Kidneys projected CAD, median (range)” value ([6]; All patients) was 21 (14–40) Gy, the “Kidneys absorbed dose coefficient, mean (SD)” value ([6]; GEP-NET) was 0.71 (0.25) Gy/GBq and the “Kidneys absorbed dose coefficient, median (range)” value ([6]; GEP-NET) was 0.71 (0.46–0.96) Gy/GBq. For the same molecule, the “Red marrow (blood) absorbed dose coefficient, mean (SD)” value ([6]; GEP-NET) was 0.024 (0.0035) Gy/GBq, the “Red marrow (blood) absorbed dose coefficient, median (range)” value ([6]; GEP-NET) was 0.024 (0.019–0.027) Gy/GBq and the “Red marrow (blood) projected CAD, mean (SD)” value ([6]; GEP-NET) was 0.70 (0.10) Gy. For the same molecule, the “Red marrow (blood) projected CAD, median (range)” value ([6]; GEP-NET) was 0.72 (0.55–0.79) Gy, the “Spleen absorbed dose coefficient, mean (SD)” value ([6]; GEP-NET) was 0.63 (0.39) Gy/GBq and the “Spleen absorbed dose coefficient, median (range)” value ([6]; GEP-NET) was 0.55 (0.28–1.1) Gy/GBq. The “Spleen projected CAD, mean (SD)” value ([6]; GEP-NET) was 19 (12) Gy, the “Spleen projected CAD, median (range)” value ([6]; GEP-NET) was 16 (8.3–34) Gy and the “Total body absorbed dose coefficient, mean (SD)” value ([6]; GEP-NET) was 0.040 (0.013) Gy/GBq. For the same molecule, the “Total body absorbed dose coefficient, median (range)” value ([6]; GEP-NET) was 0.040 (0.022–0.055) Gy/GBq, the “Total body projected CAD, mean (SD)” value ([6]; GEP-NET) was 1.2 (0.40) Gy and the “Total body projected CAD, median (range)” value ([6]; GEP-NET) was 1.2 (0.66–1.6) Gy. For the same molecule, the “Urinary bladder wall absorbed dose coefficient, mean (SD)” value ([6]; GEP-NET) was 0.50 (0.034) Gy/GBq, the “Urinary bladder wall absorbed dose coefficient, median (range)” value ([6]; GEP-NET) was 0.49 (0.47–0.54) Gy/GBq and the “Urinary bladder wall projected CAD, mean (SD)” value ([6]; GEP-NET) was 15 (1.0) Gy. The “Urinary bladder wall projected CAD, median (range)” value ([6]; GEP-NET) was 14 (14–16) Gy, the “Tumour absorbed dose coefficient, mean (SD)” value ([6]; GEP-NET, 8 lesions) was 2.6 (1.2) Gy/GBq and the “Tumour absorbed dose coefficient, median (range)” value ([6]; GEP-NET, 8 lesions) was 2.3 (1.4–5.1) Gy/GBq. The “Tumour projected CAD, mean (SD)” value ([6]; GEP-NET, 8 lesions) was 76 ± 35 Gy and 76 (35) Gy, the “Tumour projected CAD, median (range)” value ([6]; GEP-NET, 8 lesions) was 69 (41–150) Gy and the “Pituitary absorbed dose coefficient, mean (SD)” value ([6]; GEP-NET, n=3) was 1.2 (0.43) Gy/GBq. For the same molecule, the “Pituitary absorbed dose coefficient, median (range)” value ([6]; GEP-NET, n=3) was 1.1 (0.93–1.7) Gy/GBq, the “Pituitary projected CAD, mean (SD)” value ([6]; GEP-NET, n=3) was 37 (13) Gy and the “Pituitary projected CAD, median (range)” value ([6]; GEP-NET, n=3) was 32 (28–51) Gy. The “Kidneys projected CAD, mean (SD)” value ([6]; GEP-NET) was 21 (7.3) Gy, the “Kidneys projected CAD, median (range)” value ([6]; GEP-NET) was 21 (14–28) Gy and the “Kidneys absorbed dose coefficient, mean (SD)” value ([6]; PPGL) was 0.82 (0.32) Gy/GBq. For the same molecule, the “Kidneys absorbed dose coefficient, median (range)” value ([6]; PPGL) was 0.71 (0.55–1.3) Gy/GBq, the “Pituitary absorbed dose coefficient, mean (SD)” value ([6]; PPGL) was 1.0 (0.45) Gy/GBq and the “Pituitary absorbed dose coefficient, median (range)” value ([6]; PPGL) was 0.93 (0.61–1.9) Gy/GBq. The “Pituitary projected CAD, mean (SD)” value ([6]; PPGL) was 31 (13) Gy, the “Pituitary projected CAD, median (range)” value ([6]; PPGL) was 28 (18–56) Gy and the “Red marrow (blood) absorbed dose coefficient, mean (SD)” value ([6]; PPGL) was 0.028 (0.0052) Gy/GBq. The “Red marrow (blood) absorbed dose coefficient, median (range)” value ([6]; PPGL) was 0.029 (0.022–0.035) Gy/GBq, the “Red marrow (blood) projected CAD, mean (SD)” value ([6]; PPGL) was 0.83 (0.16) Gy and the “Red marrow (blood) projected CAD, median (range)” value ([6]; PPGL) was 0.87 (0.64–1.0) Gy. The “Spleen absorbed dose coefficient, mean (SD)” value ([6]; PPGL) was 0.82 (0.17) Gy/GBq, the “Spleen absorbed dose coefficient, median (range)” value ([6]; PPGL) was 0.81 (0.64–1.1) Gy/GBq and the “Spleen projected CAD, mean (SD)” value ([6]; PPGL) was 24 (5.0) Gy. The “Spleen projected CAD, median (range)” value ([6]; PPGL) was 24 (19–31) Gy, the “Total body absorbed dose coefficient, mean (SD)” value ([6]; PPGL) was 0.041 (0.0073) Gy/GBq and the “Total body projected CAD, mean (SD)” value ([6]; PPGL) was 1.2 (0.21) Gy. The “Total body projected CAD, median (range)” value ([6]; PPGL) was 1.2 (0.97–1.5) Gy, the “Urinary bladder wall absorbed dose coefficient, mean (SD)” value ([6]; PPGL) was 0.59 (0.096) Gy/GBq and the “Urinary bladder wall absorbed dose coefficient, median (range)” value ([6]; PPGL) was 0.63 (0.47–0.68) Gy/GBq. The “Urinary bladder wall projected CAD, mean (SD)” value ([6]; PPGL) was 17 (2.8) Gy, the “Urinary bladder wall projected CAD, median (range)” value ([6]; PPGL) was 19 (14–20) Gy and the “Tumour absorbed dose coefficient, mean (SD)” value ([6]; PPGL, 10 lesions) was 1.5 (1.1) Gy/GBq. The “Tumour absorbed dose coefficient, median (range)” value ([6]; PPGL, 10 lesions) was 1.2 (0.17–3.3) Gy/GBq, the “Tumour projected CAD, mean (SD)” value ([6]; PPGL, 10 lesions) was 44 ± 34 Gy and 44 (34) Gy and the “Tumour projected CAD, median (range)” value ([6]; PPGL, 10 lesions) was 36 (4.9–98) Gy. For the same molecule, the “Kidneys projected CAD, mean (SD)” value ([6]; PPGL) was 24 (9.3) Gy and the “Kidneys projected CAD, median (range)” value ([6]; PPGL) was 21 (16–40) Gy.
